Here are results for one molecule from patent US20200407457A1 (YANTAI OBIOADC BIOMEDICAL TECHNOLOGY, published 2020).

For assay [1], the target named is T1, TRAILR2 receptor on the surface of human tumor cells (human, UniProt O14763 56-440). The experiment in a line: cell-based or functional assay.
Assay [2] deals with T1, TRAILR2 receptor on the surface of …. The experiment in a line: cell-based or functional assay. The source holds these as a separate data set.

Read-outs that look alike come from different tables or passages of the source.

B1: Zaptuzumab (antibody, V domains shown)
VH: QVQLVQSGSELKKPGASVKVSCKASGYTFTDFSMNWVRQAPGQGLEWMGWINTETGEPTYADDFKGRFVFSLDTSVSTAYLQISSLKAEDTAVYYCARIDYWGQGTTVTVSS
VL: DIVMTQSPLSLPVTPGEPASISCRSSQSLVHSNGNTYLHWYLQKPGQSPQLLIYKVSNRFSGVPDRFSGSGSGTDFTLKISRVEAEDVGVYYCFQSTHVPHTFGQGTKLEIKR
Turning to B1, in assay [1], the “IC50, cytotoxic effect on Jurkat E6-1 cells (CellTiter-Glo, 72 h)” value came to 0.201 mg/L; the “IC50, cytotoxic effect on MSTO-211H cells (CellTiter-Glo, 72 h)” value worked out at 0.514 mg/L; the “IC50, cytotoxic effect on Mia PaCa-2 cells (CellTiter-Glo, 72 h)” value stood at 2.9 mg/L; the “IC50, cytotoxic effect on Reh cells (CellTiter-Glo, 72 h)” value worked out at 1.59 mg/L. Besides, in assay [1], the “eff. (efficiency %), cytotoxic effect on Jurkat E6-1 cells” value was found to be 90.7%; the “eff. (efficiency %), cytotoxic effect on MSTO-211H cells” value was found to be 47.8%; the “eff. (efficiency %), cytotoxic effect on Mia PaCa-2 cells” value worked out at 33.2%; the “eff. (efficiency %), cytotoxic effect on Reh cells” value was determined as 45%. In addition, in assay [2], the “IC50, cytotoxic effect on Jurkat E6-1 cells (CellTiter-Glo, 72 h)” value stood at 0.201 mg/L; the “IC50, cytotoxic effect on Mia PaCa-2 cells (CellTiter-Glo, 72 h)” value was determined as 3.01 mg/L; the “IC50, cytotoxic effect on NCI-H1975 cells (CellTiter-Glo, 72 h)” value was found to be 0.542 mg/L; the “IC50, cytotoxic effect on SMMC-7721 cells (CellTiter-Glo, 72 h)” value turned out to be 6.12 mg/L. In addition, in assay [2], the “eff. (efficiency %), cytotoxic effect on Jurkat E6-1 cells” value is 90.7%; the “eff. (efficiency %), cytotoxic effect on Mia PaCa-2 cells” value is 27.5%; the “eff. (efficiency %), cytotoxic effect on NCI-H1975 cells” value worked out at 62.4%; the “eff. (efficiency %), cytotoxic effect on SMMC-7721 cells” value was 48%.
